In IntAct's records for PubMed 26694203:

B1: Mesoderm posterior protein 1 (Homo sapiens), Q9BRJ9 (parent)
chain: MAQPLCPPLSESWMLSAAWGPTRRPPPSDKDCGRSLVSSPDSWGSTPADSPVASPARPGTLRDPRAPSVGRRGARSSRLGSGQRQSASEREKLRMRTLARALHELRRFLPPSVAPAGQSLTKIETLRLAIRYIGHLSAVLGLSEESLQRRCRQRGDAGSPRGCPLCPDDCPAQMQTRTQAEGQGQGRGLGLVSAVRAGASWGSPPACPGARAAPEPRDPPALFAEAACPEGQAMEPSPPSPLLPGDVLALLETWMPLSPLEWLPEEPK

Variants of: B1
Conditions: with tfe2_human TCF3, P15923
tfe2_human TCF3, P15923, sequence (P15923 whole entry): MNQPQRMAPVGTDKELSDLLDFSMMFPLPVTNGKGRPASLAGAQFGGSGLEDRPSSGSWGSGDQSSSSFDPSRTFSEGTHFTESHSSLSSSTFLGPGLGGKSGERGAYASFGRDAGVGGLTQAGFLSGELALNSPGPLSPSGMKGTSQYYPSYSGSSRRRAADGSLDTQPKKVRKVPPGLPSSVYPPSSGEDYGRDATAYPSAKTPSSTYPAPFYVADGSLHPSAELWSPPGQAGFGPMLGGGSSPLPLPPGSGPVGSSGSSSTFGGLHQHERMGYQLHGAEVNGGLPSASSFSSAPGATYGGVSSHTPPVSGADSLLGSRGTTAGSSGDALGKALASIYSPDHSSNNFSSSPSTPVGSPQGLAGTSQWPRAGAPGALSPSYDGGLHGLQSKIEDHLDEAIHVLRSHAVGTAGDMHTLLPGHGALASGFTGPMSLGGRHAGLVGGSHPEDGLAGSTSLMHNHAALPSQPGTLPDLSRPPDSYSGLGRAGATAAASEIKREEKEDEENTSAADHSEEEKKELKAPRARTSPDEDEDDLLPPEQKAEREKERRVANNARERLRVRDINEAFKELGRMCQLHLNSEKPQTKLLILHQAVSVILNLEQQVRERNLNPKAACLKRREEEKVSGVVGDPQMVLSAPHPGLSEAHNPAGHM
With MAQPLCPPLSESWMLSAAWGPTRRPPPSDKDCGRSLVSSPDSWGSTPADSPVASPARPGTLRDPRAPSVGRRGARSSRLGSGQRQSASEREKLRMRTLARALHELRRFLPPSVAPAGQSLTKIETLRLAIRYIGHLSAVLGLSEESLQRRCRQRGDAGSPRGCPLCPGDCPAQMQTRTQAEGQGQGRGLGLVSAVRAGASWGSPPACPGARAAPEPRDPPALFAEAACPEGQAMEPSPPSPLLPGDVLALLETWMPLSPLEWLPEEPK [D168G] the “effect of a mutation on the interaction” value was “decreasing interaction strength”.
In the case of MAQPLCPPLSESWMLSAAWGPTRRPPPSDKDCGRSLVSSPDSWGSTPADSPVASPARPGTLRDPRAPSVGRRGARSSRLGSGQRQSASEREKLRMRTLARALHKLRRFLPPSVAPAGQSLTKIETLRLAIRYIGHLSAVLGLSEESLQRRCRQRGDAGSPRGCPLCPDDCPAQMQTRTQAEGQGQGRGLGLVSAVRAGASWGSPPACPGARAAPEPRDPPALFAEAACPEGQAMEPSPPSPLLPGDVLALLETWMPLSPLEWLPEEPK [E104K], the “effect of a mutation on the interaction” value is reported as “decreasing interaction strength”.
MAQPLCPPLSESWMLSAAWGPTRRPPPSDKDCGRSLVSSPDSWGSTPADSPVASPARPGTLRDPRAPSVGRRGARSSRLGSGQRQSASEREKLRMRTLARALHELRRFLPPSVAPAGQSPTKIETLRLAIRYIGHLSAVLGLSEESLQRRCRQRGDAGSPRGCPLCPDDCPAQMQTRTQAEGQGQGRGLGLVSAVRAGASWGSPPACPGARAAPEPRDPPALFAEAACPEGQAMEPSPPSPLLPGDVLALLETWMPLSPLEWLPEEPK [L120P] was tested, and the “effect of a mutation on the interaction” value was “decreasing interaction strength”.
In the case of MAQPLCPPLSESWMLSAAWGPTRRPPPSDKDCGRSLVSSPDSWGSTPADSPVASPARPGTLRDPRAPSVGRRGARSSRLGSGQRQSASEREKLRMRTLARALHELRRFLPPSVAPAGQSLTKIETLRLAIRYIGHLSAVLGLSEESLQRRCRQRGDAGSPRGCPLCPDDCPAQMQTRTQAEGQGQGRGLGLVSAVRAGASWGSPPACPGARAAPEPRDPPALFAEAACPEGQAMEPSPPSPLLPGDVLALLETWMPLSPLEWLPEEPN [K268N], the “effect of a mutation on the interaction” value is reported as “with no effect”.
With MAQPLCPPLSESWMLSAAWGPTRRPPPSDKDCGRSLVSSPDSWGSTPADSPVASPARPGTLRDPRAPSVDRRGARSSRLGSGQRQSASEREKLRMRTLARALHELRRFLPPSVAPAGQSLTKIETLRLAIRYIGHLSAVLGLSEESLQRRCRQRGDAGSPRGCPLCPDDCPAQMQTRTQAEGQGQGRGLGLVSAVRAGASWGSPPACPGARAAPEPRDPPALFAEAACPEGQAMEPSPPSPLLPGDVLALLETWMPLSPLEWLPEEPK [G70D] the “effect of a mutation on the interaction” value was “with no effect”.
